In assay [1] the target is human activated protein C (human) (UniProt P04070). As to the kind of experiment: cell-based or functional assay.
In assay [2] the target is T1, human activated protein C (human, UniProt P04070 43-197; P04070 212-461).
T1 construct: In the plasma assays aPC is generated in human plasma with Protac; also called aPC; haPC
As to the kind of experiment: Octet BLI. How it is done: (§1) Assay method: Octet analysis was carried out at 25° C. using a Protein A Octet biosensor in 1× Kinetics buffer. During the kinetics assay, the baseline step assay was run in 1× Kinetics buffer for 120 seconds, and then run for 240 seconds after the antibody was loaded to the biosensor. Next, the baseline 2 step assay was run in 1× Kinetics buffer for 120 seconds. […] The 1× Kinetics buffer was used as a blank control to show the natural dissociation of the antibody in the buffer. 10 mM glycine at pH 1.5 was used for the regeneration step. Octet data analysis software was used to calculate binding kinetics, and a 1:1 binding model was used for curve fitting.

Assay [3] concerns the target T1, human activated protein C. As to the kind of experiment: cell-based or functional assay.
For assay [4], the target named is T2, human protein C (human, UniProt P04070 43-461).
T2 construct: Zymogen form, coated on ELISA plates; also called hPC; PC
As to the kind of experiment: ELISA on plate-coated HPC, OD450. How it is done: (§2) The binding abilities of the anti-aPC monoclonal antibodies to haPC/hPC were assayed by Elisa. […] 1. ELISA plates were coated with haPC/hPC (1 ug/mL in PBS), 100 μL/well, at 4° C. overnight. […] 2. The plates were washed 3 times with PBST (0.1% Tween 20), 200 μL/well. […] 3. The plates were blocked with 2% BSA (PBS solution), 200 μL/well, at room temperature for 1 hour. […] 4. The plates were washed 3 times with PBST (0.1% Tween 20), 200 μL/well. […] 5. The plates were incubated with anti-aPC monoclonal antibody as primary antibody (diluted from 10 μg/mL in 2% BSA), 100 μL/well, at room temperature for 1 hour. […] 6. The plates were washed 3 times with PBST (0.1% Tween 20), 200 μL/well. [0200] 7. The plates were incubated with anti-hIgG-Fc antibody-HRP (diluted 5000-fold in 2% BSA buffer) at room temperature for 1 hour. [0201] 8. The plates were washed 6 times with PBST (0.1% Tween 20), 200 μL/well. [0202] 9. The plates were incubated with a TMB substrate (prepared from solutions A and B at 1:1 (v/v)), 100 μL/well, away from light for 10 minutes. […] 10. The reaction was quenched with HCl (1 M), 100 μL/well, and OD450 was read.
Background: In an ELISA, binding on a coated surface is turned into a signal by an enzyme label.

Assay [5] addresses T2, human protein C. As to the kind of experiment: ELISA, plate coated with hPC 1 ug/mL, anti-hIgG-Fc-HRP. How it is done: as §2
The target in assay [6] is T1, human activated protein C. The assay can be described thus: ELISA, plate coated with haPC 1 ug/mL, anti-hIgG-Fc-HRP. How it is done:
as §2

Assay [7] has as its target T1, human activated protein C. As to the kind of experiment: Octet BLI, antibody on Protein A sensor, huAPC 3.13-50 nM, 1:1 model, 25 C, pH 7.4. How it is done:
as §1
The affinities of the mutant antibodies were assayed at pH 7.4.
A general note: Biolayer interferometry detects binding as a change in optical thickness at a sensor tip.

Assay [8] concerns the target T2, human protein C. The assay can be described thus: ELISA on plate-coated HuPC (1 ug/ml), OD450.
Assay [9] has as its target T1, human activated protein C. As to the kind of experiment: ELISA on plate-coated APC (1 ug/ml), OD 450; EC50 from the table drawn beside the curves; no unit in the table, axis Ab Conc.(nM).

Residue numbers refer to the chain shown, from its start.

B1: HAPC1573 (antibody, from another filing, V domains shown)
VH: EVKLEESGGGLVQPGGSMKLSCVASGFTFSNYYLNWVRQSPEKGLEWVADIRLKSNNYEKHYAESVKGRFTISRDDSKSSVYLQMNNLRAEDTGIYYCIREGDYFDYWGQGTTLTVSS
VL: NIVLTQSPASLAVSLGQRATISCRASESVDSFGATFMHWYQQKPGQPPKLLIYLASNLESGVPARFSGSGSRTDFTLTIDPVEADDAATYYCQQNNEDPYTFGGGTKLEIKR
Consider B1, for which, in [1], the Mean clotting time (s), FIX-deficient plasma, APC-antibody concentration 0.5 ug/ml was 584 s; the Mean clotting time (s), FIX-deficient plasma, APC-antibody concentration 1 ug/ml was 567 s; the Mean clotting time (s), FIX-deficient plasma, APC-antibody concentration 5 ug/ml came to 404 s; the Mean clotting time (s), FVIII-deficient plasma, APC-antibody concentration 0.5 ug/ml was found to be 600 s. In assay [1], this molecule returned a Mean clotting time (s), FVIII-deficient plasma, APC-antibody concentration 1 ug/ml of 629 s; a Mean clotting time (s), FVIII-deficient plasma, APC-antibody concentration 5 ug/ml of 389 s; an antibody concentration needed to inhibit the anticoagulant activity of aPC, Protac-induced APTT in factor-deficient human plasma above 100 µg/mL.

B2: HAPC-14-6 (antibody, V domains shown)
VH: EVQLVESGGGLVQPGGSLRLSCAASGFTFSFYYLNWVRQAPGKGLEWVGDIRLKKNNYEKHYAESVKGRFTISRDDSKSITYLQMNSLRAEDTAVYYCAREGDYFDYWGQGTTVTVSS
VL: DIQLTQSPSSLSASVGDRVTITCRASESVDSFGATFMHWYQQKPGKAPKLLIYLASRLGSGVPSRFSGSGSGTDFTLTISSLQPEDFATYYCQQNNEDPYTFGQGTKLEIK
notes: Whole IgG, backbone hIgG1; also called HPAC 14-6; No. 6
Broadly, the EC50 is the midpoint of the concentration-response curve. Lower therefore signals greater potency. By Kd is commonly meant the constant that tells how readily two partners part at equilibrium. As a reminder, the koff is the rate constant with which the complex falls apart. High values mean fast dissociation, low ones slow dissociation. What is called kon is a measure of how fast the partners come together. As to B2, the “fold increase of affinity against the unmutated No. 14 antibody HAPC-14” value in assay [2] is around 100 fold. In assay [3], the “Mean clotting time (s), FIX-deficient plasma, APC-antibody concentration 0.5 ug/ml” value came to 181 s; the “Mean clotting time (s), FIX-deficient plasma, APC-antibody concentration 1 ug/ml” value is 198 s; the “Mean clotting time (s), FIX-deficient plasma, APC-antibody concentration 5 ug/ml” value amounted to 180 s; the “Mean clotting time (s), FVIII-deficient plasma, APC-antibody concentration 0.5 ug/ml” value turned out to be 182 s. For the same molecule, in assay [3], the “Mean clotting time (s), FVIII-deficient plasma, APC-antibody concentration 1 ug/ml” value was 187 s and the “Mean clotting time (s), FVIII-deficient plasma, APC-antibody concentration 5 ug/ml” value was 162 s. The binding result with human protein C [4] was “no binding (tested: 10^2 nM)”. Besides, the Span with human protein C [5] is around 0.0133. For the same molecule, in assay [6], the EC50 came to 0.0821 nM and the Span is 1.85. In addition, in assay [7], the Kd was found to be 3.64 nM, the koff stood at 0.00108 s⁻¹ and the kon came out at 297000 M⁻¹ s⁻¹.

B3: Humanized antibody 13 (HAPC-13) (antibody, V domains shown)
VH: B2 VH with F31N, K55S
VL: B2 VL with L4M, R57N, G59E
notes: also called Humab001-13; NO; 13 antibody
Turning to B3, in assay [3], the “Mean clotting time (s), FIX-deficient plasma, APC-antibody concentration 0.5 ug/ml” value was 502 s; the “Mean clotting time (s), FIX-deficient plasma, APC-antibody concentration 1 ug/ml” value was found to be 402 s; the “Mean clotting time (s), FIX-deficient plasma, APC-antibody concentration 5 ug/ml” value was 326 s; the “Mean clotting time (s), FVIII-deficient plasma, APC-antibody concentration 0.5 ug/ml” value was found to be 629 s. Also, in [3], the “Mean clotting time (s), FVIII-deficient plasma, APC-antibody concentration 1 ug/ml” value stood at 546 s and the “Mean clotting time (s), FVIII-deficient plasma, APC-antibody concentration 5 ug/ml” value amounted to 301 s. Also, the binding result in the assay with human protein C [8] is listed as “no binding (tested: 100 nM)”. In [9], the EC50 turned out to be 0.199 nM.

B4: Humanized antibody 16 (HAPC-16) (antibody, V domains shown)
VH: B2 VH with F31N, K55S
VL: B2 VL with D1N, Q3V, A47P, R57N, G59E, G72R
notes: also called Humab001-16; NO; 16 antibody
Consider B4, for which the binding result with human protein C [8] is recorded as “no binding (tested: 100 nM)”. In assay [9], this molecule displayed an EC50 of 0.172 nM.

B5: HAPC-14-3 (antibody, V domains shown)
VH: B2 VH
VL: B2 VL with Q93V
notes: Whole IgG, backbone hIgG1; also called HPAC 14-3; No. 3
As to B5, the “fold increase of affinity against the unmutated No. 14 antibody HAPC-14” value in assay [2] was around 100 fold. Also, in assay [3], the “Mean clotting time (s), FIX-deficient plasma, APC-antibody concentration 0.5 ug/ml” value was found to be 208 s; the “Mean clotting time (s), FIX-deficient plasma, APC-antibody concentration 1 ug/ml” value came to 200 s; the “Mean clotting time (s), FIX-deficient plasma, APC-antibody concentration 5 ug/ml” value came out at 185 s; the “Mean clotting time (s), FVIII-deficient plasma, APC-antibody concentration 0.5 ug/ml” value amounted to 205 s. In [3], the “Mean clotting time (s), FVIII-deficient plasma, APC-antibody concentration 1 ug/ml” value was 188 s and the “Mean clotting time (s), FVIII-deficient plasma, APC-antibody concentration 5 ug/ml” value was 176 s. In the assay with human protein C [4], the binding result is reported as “no binding (tested: 10^2 nM)”. Further, the Span with human protein C [5] was around 0.267. In assay [6], this molecule yielded an EC50 of 0.0618 nM and a Span of 1.61. In [7], this molecule showed a Kd of 2.67 nM, a koff of 0.000854 s⁻¹ and a kon of 320000 M⁻¹ s⁻¹.

B6: Humanized antibody 14 (HAPC-14) (antibody, V domains shown)
VH: B2 VH with F31N, K55S
VL: B2 VL with R57N, G59E
notes: also called Humab001-14; NO; 14 antibody
Take B6: in assay [3], the “Mean clotting time (s), FIX-deficient plasma, APC-antibody concentration 0.5 ug/ml” value was found to be 457 s; the “Mean clotting time (s), FIX-deficient plasma, APC-antibody concentration 1 ug/ml” value was 415 s; the “Mean clotting time (s), FIX-deficient plasma, APC-antibody concentration 5 ug/ml” value came out at 310 s; the “Mean clotting time (s), FVIII-deficient plasma, APC-antibody concentration 0.5 ug/ml” value worked out at 574 s. Also, in assay [3], the “Mean clotting time (s), FVIII-deficient plasma, APC-antibody concentration 1 ug/ml” value worked out at 457 s and the “Mean clotting time (s), FVIII-deficient plasma, APC-antibody concentration 5 ug/ml” value was determined as 324 s. Moreover, the binding result in the assay with human protein C [4] is on record as “no binding (tested: 10^2 nM)”. Also, the Span with human protein C [5] was around 0.0387. Moreover, in assay [6], the half-maximal effective concentration (EC50) was 0.22 nM and the Span is 0.291. For the same molecule, in [7], the Kd was 254 nM, the koff came to 0.0162 s⁻¹ and the kon was 64000 M⁻¹ s⁻¹. The same molecule came in with an EC50 in assay [9] of 0.249 nM.
